# Laboratory results published in article PMC8993412 (Journal of Molecular Biology, 2022).
# What was measured:
# [1] = biological target: SARS-CoV-2 Nsp12 (recombinant) (SARS-CoV-2, reference, UniProt P0DTD1); test: western blot
# [2] = biological target: Nsp12 in SARS-CoV-2-infected VeroE6 cells (SARS-CoV-2 USA-WA1/2020, UniProt P0DTD1); test: immunostaining of cells or tissue
# [3] = biological target: Nsp1 in SARS-CoV-2-infected VeroE6 cells (SARS-CoV-2 USA-WA1/2020, UniProt P0DTD1); test: immunostaining of cells or tissue
# [4] = biological target: SARS-CoV-2 Nsp1, full-length protein (recombinant) (SARS-CoV-2, reference, UniProt P0DTD1); test: ELISA
binder,measurement,setting,value
"IgG 15884 (anti-Nsp12) (antibody, V domains shown) VH: EVQLVESGGGLVQPGGSLRLSCAASGFNIYYYSMHWVRQAPGKGLEWVASIYSYYGYTSYADSVKGRFTISADTSKNTAYLQMNSLRAEDTAVYYCARHPAYGGMDYWGQGTLVTVSS VL: DIQMTQSPSSLSASVGDRVTITCRASQSVSSAVAWYQQKPGKAPKLLIYSASSLYSGVPSRFSGSRSGTDFTLTISSLQPEDFATYYCQQSHWHPITFGQGTKVEIK",binding result,[1],binds
same,binding result,[2],binds
"IgG 15497 (anti-Nsp1) (antibody, V domains shown) VH: EVQLVESGGGLVQPGGSLRLSCAASGFNFSSSSIHWVRQAPGKGLEWVASISSSYGYTYYADSVKGRFTISADTSKNTAYLQMNSLRAEDTAVYYCARWAAMDYWGQGTLVTVSS VL: DIQMTQSPSSLSASVGDRVTITCRASQSVSSAVAWYQQKPGKAPKLLIYSASSLYSGVPSRFSGSRSGTDFTLTISSLQPEDFATYYCQQYYSLITFGQGTKVEIK",binding result,[3],binds
"Fab 15497 (Fab-phage clone) (Fab, V domains shown) VH: EVQLVESGGGLVQPGGSLRLSCAASGFNFSSSSIHWVRQAPGKGLEWVASISSSYGYTYYADSVKGRFTISADTSKNTAYLQMNSLRAEDTAVYYCARWAAMDYWGQGTLVTVSS VL: DIQMTQSPSSLSASVGDRVTITCRASQSVSSAVAWYQQKPGKAPKLLIYSASSLYSGVPSRFSGSRSGTDFTLTISSLQPEDFATYYCQQYYSLITFGQGTKVEIK",binding result,[4],binds
"Fab 15498 (Fab-phage clone) (Fab, V domains shown) VH: EVQLVESGGGLVQPGGSLRLSCAASGFNISSSSMHWVRQAPGKGLEWVAAVASFYGATYYADSVKGRFTISADTSKNTAYLQMNSLRAEDTAVYYCARAYHAGLDYWGQGTLVTVSS VL: DIQMTQSPSSLSASVGDRVTITCRASQSVSSAVAWYQQKPGKAPKLLIYSASSLYSGVPSRFSGSRSGTDFTLTISSLQPEDFATYYCQQWYYYSAAVTFGQGTKVEIK",binding result,[4],binds
